From PMC11443449, “NudCL2 is required for cytokinesis by stabilizing RCC2 with Hsp90 at the midbody” (Protein & Cell, 2024) come the findings set out here.

In the assay the target is T1, His-RCC2 (human, UniProt Q9P258 1-522).
T1 construct: Regulator of chromosome condensation 2 (RCC2), human, full length, cloned by PCR from pSA-RCC2 into pET-28a; pET-28a (His-tag vector, Novagen); also called regulator of chromosome condensation 2; telophase disc protein of 60 kDa; source: Escherichia coli BL21, purified
The assay can be described thus: pull-down; GST pull-down with purified GST, GST-NudCL2 and His-RCC2; incubated in PBS at 4°C for 4 h, then glutathione-agarose beads for 2 h; Western blot. The following applies: both partners purified.

T1 sequence (Q9P258 whole entry): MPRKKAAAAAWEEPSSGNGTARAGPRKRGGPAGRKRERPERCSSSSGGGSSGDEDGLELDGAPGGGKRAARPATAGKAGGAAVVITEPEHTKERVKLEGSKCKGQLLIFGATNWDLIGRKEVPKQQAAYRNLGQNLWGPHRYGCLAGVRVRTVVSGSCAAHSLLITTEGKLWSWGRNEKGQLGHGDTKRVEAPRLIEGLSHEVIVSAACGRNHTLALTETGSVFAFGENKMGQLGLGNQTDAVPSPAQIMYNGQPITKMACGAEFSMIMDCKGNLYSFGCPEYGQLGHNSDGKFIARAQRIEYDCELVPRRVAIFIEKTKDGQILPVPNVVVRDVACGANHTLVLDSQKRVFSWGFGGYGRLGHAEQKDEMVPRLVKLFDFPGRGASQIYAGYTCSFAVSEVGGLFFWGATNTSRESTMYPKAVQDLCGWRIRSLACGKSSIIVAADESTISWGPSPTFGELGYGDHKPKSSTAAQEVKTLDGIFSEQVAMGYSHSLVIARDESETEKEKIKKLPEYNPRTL

B1: GST-NudCL2 (natural protein, human, UniProt Q8WVJ2 1-157, looked up)
chain: MSAPFEERSGVVPCGTPWGQWYQTLEEVFIEVQVPPGTRAQDIQCGLQSRHVALSVGGREILKGKLFDSTIADEGTWTLEDRKMVRIVLTKTKRDAANCWTSLLESEYAADPWVQDQMQRKLTLERFQKENPGFDFSGAEISGNYTKGGPDFSNLEK
notes: NudC-like protein 2 (NudCL2, NudCD2), human; Li et al., 2019; Yang et al., 2010, 2019) for the vector; also called NudC-like protein 2; NudC domain-containing protein 2; source: Escherichia coli BL21, purified
In the case of B1, the binding result is listed as “binds”.
